*1 amine or outer side, *2 acyl side, *3 side chain or, on linkers, in order; H or OH if unused. Bridges are numbered along the chain shown (N, C = ends). Where no end group is shown, it is not given here. TCAN = N,N',N''-(nitrilotris(ethane-2,1-diyl))tris(2-chloroacetamide) scaffold, O=C(C[*:1])NCCN(CCNC(=O)C[*:2])CCNC(=O)C[*:3]
Target: T1, Human IL-17A (human, UniProt Q16552 24-155)
T1 construct: Soluble IL-17A used at a fixed concentration (75 nM with tracer BCY13196) in the FP assay; also called CTLA-8
T1 sequence (looked up): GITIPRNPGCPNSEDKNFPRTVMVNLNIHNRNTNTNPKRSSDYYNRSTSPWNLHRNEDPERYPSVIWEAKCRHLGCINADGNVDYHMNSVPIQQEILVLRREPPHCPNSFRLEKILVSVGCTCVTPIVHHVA
Assay: fluorescence polarization competition, 75 nM human IL-17A, 1 nM tracer BCY13196 as competitor, mean of n=3
Protocol: Affinity determination by fluorescence polarization (FP) competition. Bicycles were screened to determine affinity (Ki) in a fluorescence polarisation assay where in competition with a bicycle labelled with fluorescein (referred to as tracer) with a known affinity for IL-17A. Peptides were diluted to an appropriate concentration in assay buffer (PBS+0.01% Tween20, adjusted to pH7.4 using NaOH (1M)) with a maximum of 1% DMSO, then serially diluted 1 in 2 into assay buffer. Into black 384-well low volume plates, 5 μL of diluted peptide was added to the plate followed by 10 μL of IL-17A at a fixed concentration (75 nM IL-17A for tracer BCY13196, 50 nM IL-17A for tracer BCY13351), then 10 μL tracer added to a final concentration of 1 nM. Measurements were conducted on a BMG PHERAstar FS equipped with an “FP 485 520 520” optic module which excites at 485 nm and detects parallel and perpendicular emission at 520 nm. The PHERAstar FS was set at 25° C. with 200 flashes per well and a positioning delay of 0.1 second, with each well measured at 5 to 10 minute intervals for 60 minutes. The gain used for measurements was determined at the point of experiment on a tracer alone well. Data analysis was performed in Dotmatics where mP values were fit to the Cheng Prusoff equation in order to generate a Ki value. The tracers used was BCY13196: [Fl]-[…] […]

Ki: 488 nM
B1: BCY13061 (peptide)
peptide: ACPQDLELCTFLFGDCA
modifications: linker 2-9-16 via TCAN
notes: Synthetic bicyclic peptide cyclised on the TCAN scaffold
